The source of these data is article PMC3060825, “Structure and Function of the First Full-Length Murein Peptide Ligase (Mpl) Cell Wall Recycling Protein” (PLoS ONE, 2011).

For data set [1], the target named is murein peptide ligase (Mpl) from Psychrobacter arcticus 273-4 (Psychrobacter arcticus 273-4). Put plainly: SEC-MALS; SEC/SLS: 1x30 cm Superdex 200 coupled with miniDAWN static light scattering and Optilab differential refractive index detectors; 20 mM Tris-HCl pH 8.0, 150 mM sodium chloride, 0.02% sodium azide; molecular weight by ASTRA 5.1.5. Background: SEC sorts molecules by how far they enter the pores of the column.

The target is the same in data set [2]. Put plainly: SEC; elution of the same Superdex 200 run (refractive index trace) compared with the BioRad gel filtration standard (158, 44 and 17 kDa).
Data set [3] concerns the molecule itself. In words: SEC; 100 µl of 1.3 mg of EcMpl on Superdex 200 10/300 GL; 20 mM potassium phosphate pH 7.4, 0.15 mM NaCl, 0.01% 2-mercaptoethanol; 0.5 ml/min, detection at 280 nm.
Substrate in data set [4]: CC(=O)N[C@H]1[C@@H](OP(=O)(O)OP(=O)(O)OC[C@H]2O[C@@H](n3ccc(=O)[nH]c3=O)[C@H](O)[C@@H]2O)O[C@H](CO)[C@@H](O)[C@@H]1O[C@H](C)C(=O)O
In words: purified protein. The data set is classed as biochemical, Psychrobacter arcticus. The conditions noted are these: 5 mM ATP, 0.25 mM L-Ala-γ-D-Glu-meso-A2pm, 5 mM MgCl2, pH 8.4, 30 min, labelled compound.

Substrate in data set [5]: Nc1ncnc2c1ncn2[C@@H]1O[C@H](COP(=O)(O)OP(=O)(O)OP(=O)(O)O)[C@@H](O)[C@H]1O
In words: purified protein. The data set is classed as biochemical, Psychrobacter arcticus. To be noted: 0.4 mM UDP-MurNAc, 0.25 mM L-Ala-γ-D-Glu-meso-A2pm, 5 mM MgCl2, pH 8.4, 30 min.

For “murein peptide ligase (Mpl) from Psychrobacter arcticus 273-4 (enzyme)”, the stoichiometry N – broadly, the number of molecules, sites or subunits per partner or assembly – in data set [1] worked out at 2.09; in data set [2], 4.

B1: Mpl from Escherichia coli (enzyme, UniProt P37773 1-457, looked up)
chain: MRIHILGICGTFMGGLAMLARQLGHEVTGSDANVYPPMSTLLEKQGIELIQGYDASQLEPQPDLVIIGNAMTRGNPCVEAVLEKNIPYMSGPQWLHDFVLRDRWVLAVAGTHGKTTTAGMATWILEQCGYKPGFVIGGVPGNFEVSAHLGESDFFVIEADEYDCAFFDKRSKFVHYCPRTLILNNLEFDHADIFDDLKAIQKQFHHLVRIVPGQGRIIWPENDINLKQTMAMGCWSEQELVGEQGHWQAKKLTTDASEWEVLLDGEKVGEVKWSLVGEHNMHNGLMAIAAARHVGVAPADAANALGSFINARRRLELRGEANGVTVYDDFAHHPTAILATLAALRGKVGGTARIIAVLEPRSNTMKMGICKDDLAPSLGRADEVFLLQPAHIPWQVAEVAEACVQPAHWSGDVDTLADMVVKTAQPGDHILVMSNGGFGGIHQKLLDGLAKKAEAAQ
notes: Mpl (murein peptide ligase, UDP-MurNAc:L-Ala-gamma-D-Glu-meso-A2pm ligase), Escherichia coli; also called EcMpl; E. coli ortholog
Take B1: in data set [3], the “stoichiometry N” value turned out to be 2.

B2: PaMpl (Psychrobacter arcticus 273-4) (protein)
chain: MHIHILGICGTFMGSLALLARALGHTVTGSDANIYPPMSTQLEQAGVTIEEGYLIAHLQPAPDLVVVGNAMKRGMDVIEYMLDTGLRYTSGPQFLSEQVLQSRHVIAVAGTHGKTTTTTMLAWILHYAGIDAGFLIGGVPLVNTTDTNLQQVFAHSSYLGTEKDDSDNSVNTGYFVIEADEYDSAFFDKRSKFVHYRPRTAILNNLEFDHADIFADLDAIQTQFHHMVRMIPSTGKIIMPAATISLEDTLAKGVWTPIWRTSVIDSTISSVRREDSPLENSQAENSSDWQAELISADGSQFTVSFNDNKEATALVNWSMSGLHNVNNALVAIAAAYNIGVSVKTACAALSAFAGIKRRMELIGDVNDILVFDDFAHHPTAITTTLDGAKKKLADRRLWAIIEPRSNTMKMGIHQDSLAQSATLADHTLWYEPTGLEWGLKEVIDNATIANPSIGSQQVLSSVDDIIKHICTHAKAGDAIVIMSNGGFEGIHQRLLTALGNIVAIL
notes: full length, 505 residues; N-terminal His6 tag (…) kept for kinetics; E. coli MLD2502 (delta mpl); 57,187 Da with tag; dimer in solution by light scattering
Turning to B2, in the data set “purified protein [4]”, the Km – broadly, the substrate concentration at which the rate is half of its maximum – is 1000 ± 130 µM; the kcat (as a rule, the maximal rate divided by the concentration of active sites) was found to be 4.33 ± 0.333 s⁻¹; the kcat/Km (as a rule, the turnover number divided by the Michaelis constant) amounted to 4330 ± 650 M⁻¹ s⁻¹. For the same molecule, in “purified protein [5]”, the Michaelis constant (Km) was 110 ± 50 µM, the turnover number (kcat) was 4.33 ± 0.333 s⁻¹ and the kcat/Km came to 40000 ± 18300 M⁻¹ s⁻¹.
